The source of these data is paper PMC8524982.

The data set has as its system T1, His6-OsnR (Corynebacterium glutamicum), ORF:93dbb295.
T1 sequence: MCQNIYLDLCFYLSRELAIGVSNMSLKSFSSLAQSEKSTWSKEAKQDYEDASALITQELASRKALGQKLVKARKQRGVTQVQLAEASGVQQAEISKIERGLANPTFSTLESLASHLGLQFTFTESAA
Nature of the data set: EMSA. To be noted: 20 mM HEPES pH 7.4, 2.5 mM MgCl2, 75 mM KCl, 0.5 mM EDTA, 2 mM DTT, 10% glycerol, 1 ug poly d(I-C), 100 ng/ul BSA; 30 ng DNA in 20 ul, 30 C, 30 min; 5% PAGE …. On the technique in general: In EMSA bound probe runs differently from free probe, usually more slowly.
Take “ACCGCTTCTAAGCACCCAACTCGCCAAAACTAGGACAACAGGTCGCCGCAGACAGTCGACCGCTTAAAACGCCACACAGCACCCCACTTCACATAACCCCAAGTCGGAAACAAAAGCCCCCAACCTGCACAGATGTCAACTATTTCAACCAGCCAGAAACTATCTCCAAAAGCTAATAAAACCCTTGCACTGACAAATAAGGCGACCTACCATGACTCTGTTTCCAACACATAAAAAGGATAAAAAATGTCACTTTCAGTCGTCGAGGCG (double strand) [cg0404 promoter]”: the binding entry is on record as “no binding”.

Consider “CAAGCGTGGGGATTCCTGGCTCGATGCTCATGCTTCACTTCCTTATCTTTTGAAACCATGTGCAGCTGTTTTTCTCTTCATTTTTCTCTTCATACACTGACACAGTTCAACTCAATCAAATAGTCAACTATGCAAGGTAGTCGACTATGTGGCATAGTCGCCATAGTTGAGTTTTATTCATGGCTTTTAGCTAGGCGACTTTAGTTGAGGGCTTTTAGTTGAGGGCTTCCCAGCAGGGATGGTTAAGGAGAATTCAGTGAACCAACAGAGTAAAAAGTGGCTCGTACCGACACTGGT (double strand) [cg0026 promoter]”, for which the binding entry is reported as “binds”.

Turning to “GGCGAGGCCACGTTCAATCTTGCTTATTTCTGCCTGTTGGACTCCAGAAGCTTCAGCAAGTTGAACTTGGGTGACTCCTCGTTGTTTCCGAGCCTTGACTAGTTTTTGGCCAAGAGCTTTTCGTGAGGCGAGTTCTTGAGTGATTAGCGCGGAAGCGTCCTCGTAATCTTG (double strand) [osnR ORF (+110 to +286)]”, the binding result is “no binding”.

For the sequence “GGCTGCTCAGACATAAGATGTGCTCCTAATTTAGAAATCGGATGTGGGCTGGACTGGGAAGGCAACTAACTGGTGCTTTGTCGTCCACGTATCTCAACGCATATGACTATAAAAAGCTTCCCAAGTACCAGTTCAGTCTATAATTCGCGGTGTTATTGAGATGGTTTGAGGCTGGAAAGCTTCGATTGCAGCCAGTTGTTGAGTACTTCAGAGGCGTGATCTCTGGCGGGTTTCCTTGAGAGGAAAATATCGTGGCGAGCGTTGTCGATGAT (double strand) [mtr promoter]”, the binding result is on record as “no binding”.

“TTTGGTGGTGGGCAATGCTGCGACCATCTTTATGAATCTCATTGGCTGCCGGGAAGGCCGCGACCCCTTGCTGCTCATCGCGGTTCTCACGTTCCCGCTGTATTGGCTGCTCATGAGCATTGCAGCGTTGAAAGGCACGTGGCAATTGATCACGCGACCATCCTATTGGGAGAAAACTGCCCACGGATTGGAGGCGTAAGCGGTGCCCATCGTCAAACCAATGCCGGCACTG (double strand) [cg0165 promoter]”: the binding entry is reported as “binds”.
